In PMC9122904, “Insights into the client protein release mechanism of the ATP-independent chaperone Spy” (Nature Communications, 2022):
Numbering of substitutions follows the chain as printed. Numbers in names are those of the source.

Columns and labels:
Test in all cases: BLI; Octet RED96; client biotinylated and loaded on streptavidin sensors; Spy or Spy variant in solution at 0.25, 0.5, 1, 1.5 and 2 μM; 40 mM HEPES, 150 mM NaCl, pH 7.5; Kd calculated as koff/kon
Conditions in all cases: both partners purified
Spy D26A [1] = target: T1, Spy D26A (UniProt P77754 24-161, D26A)
T1 construct: source: E. coli BL21 (DE3), purified (Ni-NTA, cation exchange, SEC); not shown: His6, N-terminal, cleaved; SUMO, N-terminal, cleaved
T1 sequence (looked up): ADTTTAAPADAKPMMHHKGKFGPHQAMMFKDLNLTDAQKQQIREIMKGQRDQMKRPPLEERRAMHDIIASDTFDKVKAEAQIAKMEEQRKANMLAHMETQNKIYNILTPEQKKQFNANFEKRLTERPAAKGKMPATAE

Spy D26R [2] = target: T2, Spy D26R (UniProt P77754 24-161, D26R)
T2 construct: source: E. coli BL21 (DE3), purified (Ni-NTA, cation exchange, SEC); not shown: His6, N-terminal, cleaved; SUMO, N-terminal, cleaved
T2 sequence (looked up): T1 sequence (looked up) with A26R

Spy_(29-124) R89D = target: T3, Spy_(29-124) R89D (UniProt P77754 52-147, R89D)
T3 construct: source: E. coli BL21 (DE3), purified (Ni-NTA, cation exchange, SEC); not shown: His6, N-terminal, cleaved; SUMO, N-terminal, cleaved
T3 sequence (looked up): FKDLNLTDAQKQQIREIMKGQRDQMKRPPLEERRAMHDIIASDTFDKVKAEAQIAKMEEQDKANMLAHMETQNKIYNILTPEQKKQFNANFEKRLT

Spy_(29-124) K75D = target: T4, Spy_(29-124) K75D (UniProt P77754 52-147, K75D)
T4 construct: source: E. coli BL21 (DE3), purified (Ni-NTA, cation exchange, SEC); not shown: His6, N-terminal, cleaved; SUMO, N-terminal, cleaved
T4 sequence (looked up): T3 sequence (looked up) with K47D, D61R

Spy_(29-124) K121D R122D = target: T5, Spy_(29-124) K121D R122D (UniProt P77754 52-147, K121D | R122D)
T5 construct: source: E. coli BL21 (DE3), purified (Ni-NTA, cation exchange, SEC); not shown: His6, N-terminal, cleaved; SUMO, N-terminal, cleaved
T5 sequence (looked up): T3 sequence (looked up) with D61R, K93D, R94D

Spy_(29-124) R43D = target: T6, Spy_(29-124) R43D (UniProt P77754 52-147, R43D)
T6 construct: source: E. coli BL21 (DE3), purified (Ni-NTA, cation exchange, SEC); not shown: His6, N-terminal, cleaved; SUMO, N-terminal, cleaved
T6 sequence (looked up): T3 sequence (looked up) with R15D, D61R

Spy_(29-124) R50D = target: T7, Spy_(29-124) R50D (UniProt P77754 52-147, R50D)
T7 construct: source: E. coli BL21 (DE3), purified (Ni-NTA, cation exchange, SEC); not shown: His6, N-terminal, cleaved; SUMO, N-terminal, cleaved
T7 sequence (looked up): T3 sequence (looked up) with R22D, D61R

Spy D26E = target: T8, Spy D26E (UniProt P77754 24-161, D26E)
T8 construct: source: E. coli BL21 (DE3), purified (Ni-NTA, cation exchange, SEC); not shown: His6, N-terminal, cleaved; SUMO, N-terminal, cleaved
T8 sequence (looked up): T1 sequence (looked up) with A26E

Spy D26A [3] = target: T1, Spy D26A; remark: listed apart in the source
Spy D26K = target: T9, Spy D26K (UniProt P77754 24-161, D26K)
T9 construct: source: E. coli BL21 (DE3), purified (Ni-NTA, cation exchange, SEC); not shown: His6, N-terminal, cleaved; SUMO, N-terminal, cleaved
T9 sequence (looked up): T1 sequence (looked up) with A26K

Spy D26R [4] = target: T2, Spy D26R; remark: listed apart in the source

B1: Im7 H40W L53A I54A (natural protein)
chain: MELKNSISDYTEAEFVQLLKEIEKENVAATDDVLDVLLEWFVKITEHPDGTDAAYYPSDNRDDSPEGIVKEIKEWRAANGKPGFKQG
modifications: biotin (EZ-link NHS-biotin, 1:1 molar ratio of biotin to protein)
notes: Im7 (colicin E7 immunity protein) with H40W L53A I54A; Spy was made with an N-terminal His6-SUMO tag that was cleaved; also called Im7AAW; partially folded client; source: purified by a similar procedure to Spy
kon (Spy D26A [1]): 322000 M⁻¹ s⁻¹
kon (Spy D26R [2]): 287000 M⁻¹ s⁻¹
kon (Spy_(29-124) R89D): 48000 M⁻¹ s⁻¹
kon (Spy_(29-124) K75D): 156000 M⁻¹ s⁻¹
kon (Spy_(29-124) K121D R122D): 188000 M⁻¹ s⁻¹
kon (Spy_(29-124) R43D): 196000 M⁻¹ s⁻¹
kon (Spy_(29-124) R50D): 178000 M⁻¹ s⁻¹
koff (Spy D26E): 0.196 s⁻¹
koff (Spy D26A [3]): 0.0876 s⁻¹
koff (Spy D26K): 0.0775 s⁻¹
koff (Spy D26R [4]): 0.0811 s⁻¹
